T1: MdNAC1 (Malus domestica? (apple), UniProt D9ZJ87 1-280)
T1 sequence: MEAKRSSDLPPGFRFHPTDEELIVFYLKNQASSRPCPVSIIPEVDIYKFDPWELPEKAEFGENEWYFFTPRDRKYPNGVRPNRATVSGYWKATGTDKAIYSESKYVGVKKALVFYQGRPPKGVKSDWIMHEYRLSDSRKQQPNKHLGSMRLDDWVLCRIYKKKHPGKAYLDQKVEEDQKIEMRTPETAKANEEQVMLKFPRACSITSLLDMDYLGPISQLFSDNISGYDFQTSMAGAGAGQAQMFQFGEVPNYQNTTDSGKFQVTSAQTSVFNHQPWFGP

B1: MdEXP-A1-P2 binding probe (dsDNA)
DNA 1: TAACAACAAAATGTGCCTAACGTATACATGCAAAATAATTTACCT
DNA 2: AGGTAAATTATTTTGCATGTATACGTTAGGCACATTTTGTTGTTA
B2: MdEXP-A1-P1 binding probe (dsDNA)
DNA 1: TACATGCAAAATAATTTACCTACGTAATAAATAATAAATATTGTT
DNA 2: AACAATATTTATTATTTATTACGTAGGTAAATTATTTTGCATGTA

Molecular target: T1, MdNAC1
Experiment: EMSA; Chemiluminescent EMSA Kit (GS009, Beyotime); cold competitor 50x; buffer, salt, pH and temperature not stated
Settings: protein: recombinant; tags: GST (pGEX-6p-1); chain copies: 2; label: biotin; blunt

Row | Binder | binding result
1 | B1 | binds
2 | B2 | binds
